Experimental data from patent US20240285738A1 (IMMATICS BIOTECHNOLOGIES, published 2024).

molecular target: T1, HLA-A*02:01 (human); assay: UV peptide-exchange ELISA, exchange yield grade
T1 construct: MHC monomer first loaded with a UV-sensitive peptide that is cleaved by UV light and exchanged for the test peptide; captured on streptavidin plates and detected with anti-b2m; also called peptide-receptive MHC molecules; MHC class I
Excerpt: Candidate peptides for T cell based therapies according to the present invention were further tested for their MHC binding capacity (affinity). The individual peptide-MHC complexes were produced by UV-ligand exchange, where a UV-sensitive peptide is cleaved upon UV-irradiation, and exchanged with the peptide of interest as analyzed. Only peptide candidates that can effectively bind and stabilize the peptide-receptive MHC molecules prevent dissociation of the MHC complexes. To determine the yield of the exchange reaction, an ELISA was performed based on the detection of the light chain (B2m) of stabilized MHC complexes. The assay was performed as generally described in Rodenko et al. (Rodenko et al., 2006).
96 well MAXISorp plates (NUNC) were coated over night with 2 μg/ml streptavidin in PBS at room temperature, washed 4× and blocked for 1 h at 37° C. in 2% BSA containing blocking buffer. Refolded HLA-A*02:01/MLA-001 monomers served as standards, covering the range of 15-500 ng/ml. Peptide-MHC monomers of the UV-exchange reaction were diluted 100 fold in blocking buffer. Samples were incubated for 1h at 37° C., washed four times, incubated with 2 μg/ml HRP conjugated anti-β2m for 1h at 37° C., washed again and detected with TMB solution that is stopped with […]. Absorption was measured at 450 nm. Candidate peptides that show a high exchange yield (preferably higher than 50%, most preferred higher than 75%) are generally preferred for a generation and production of antibodies or fragments thereof, and/or T cell receptors or fragments thereof, as they show sufficient avidity to the MHC molecules and prevent dissociation of the MHC complexes.

Row | peptide exchange yield [%] | Binder
1 | 50 to 75 | LAIVPVNTL
2 | 50 to 75 | FIMEGGAMVL
3 | ≥ 75 | FILPSSLYL
